For the test, the target named is H3K4AK9me2 peptide (UniProt P59226). In words: ITC; reference is the H3K9me2 peptide.

B1: SHH1 SAWADEE domain (residues 125-258) (protein)
chain: ADLAFEAKSARDYAWYDVSSFLTYRVLRTGELEVRVRFSGFDNRHDEWVNVKTSVRERSIPVEPSECGRVNVGDLLLCFQEREDQALYCDGHVLNIKRGIHDHARCNCVFLVRYELDNTEESLGLERICRRPEE
For B1, the fold weaker affinity than with the H3K9me2 peptide came out at 30 fold.

The record behind these values is patent US20160017348A1.
